± gives the uncertainty stated by the source.

This data set is described as follows: amyloid nucleation score (Sup35N fusion, yeast selection) (log enrichment); library NNK3; higher = more nucleation; inactive = no reads after selection. A digest of the protocol:
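The nucleation score, computed with DiMSum, is the log enrichment of output over input reads, centred on the mode score of non-aggregating sequences. Sequences with under 100 input reads were dropped. Reads were generated by Illumina sequencing of plasmid inserts from psi-negative yeast with Sup35N fused to peptides of 20 random codons, induced with 100 μM copper sulfate for 24 hours and grown 7 days at 30°C on medium lacking adenine and uracil.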
Regarding QSRPKMMFLDSGCFWGFCVR, the amyloid nucleation score result was “inactive”.

With QSSIVWCVSFIKSRCDFSIC, the amyloid nucleation score result is “inactive”.

Take QSVSVGLCCWAMPVK: the amyloid nucleation score result was “inactive”.

With QTHSMGDSECYL, the amyloid nucleation score result was “inactive”.

QTLNERTWTGYDIHVRHVRR: the amyloid nucleation score entry was “inactive”.

With QTMKWSIVHGQKTGGSWVDM, the amyloid nucleation score result was “inactive”.

Consider QTQKLFQYI, for which the amyloid nucleation score result is “inactive”.

As to QTRVTVYSWVPRDYFSQHED, the amyloid nucleation score entry is “inactive”.

Regarding QTSST, the amyloid nucleation score result was “inactive”.

Regarding QTSSTNPMVASKPQAQRACK, the amyloid nucleation score entry is “inactive”.

QTVKVISPYPTMLTLCD: the amyloid nucleation score result was “inactive”.

In the case of QTVNWSDDL, the amyloid nucleation score entry is “inactive”.

In the case of QTYMTLHETVRLWARMLSC, the amyloid nucleation score entry was “inactive”.

On to QVFLSKVCMLFDVVARVVKR, for which the amyloid nucleation score result is “inactive”.

QVGQESDSCLSSIRLCFKYR had an amyloid nucleation score of 0.163 ± 0.24.

The substance QVKLGRTLTSGQGFTQLHSV yielded an amyloid nucleation score of -0.852 ± 2.5.

For QVLLCNAPFRQLYVACFYCF, the amyloid nucleation score turned out to be 0.422 ± 0.38.

In the case of QVLWTGEMDSMICWA, the amyloid nucleation score result is “inactive”.

On to QWGGSNIVRYRNFIVGLFVR, for which the amyloid nucleation score entry is “inactive”.

With QWVVEHRFWLVYNGEHRNSY, the amyloid nucleation score is 0.762 ± 0.15.

Turning to QYFSWKIRSGNLVYAF, the amyloid nucleation score entry is “inactive”.

Regarding QYICHDNCRCCQRNEKFRRK, the amyloid nucleation score result was “inactive”.

In turn, QYRRRVYDYVGCTRLWKNLW yielded an amyloid nucleation score of -0.682 ± 0.93.

Take RAALPMVFHRFLTFMDAFLV: the amyloid nucleation score is 1.83 ± 0.075.

Regarding RAEMMSYTLVQIIGYISIVE, the amyloid nucleation score entry is “inactive”.

Regarding RAFFDC, the amyloid nucleation score is -0.47 ± 0.66.

For RARALLAHLKVPSKPVFTAV, the amyloid nucleation score result is “inactive”.

Turning to RAYSLLVRQIVRCNESG, the amyloid nucleation score result was “inactive”.

Regarding RAYSSWSLSSCRCNSDWTVG, the amyloid nucleation score entry is “inactive”.

On to RAYSYPSDYWW, for which the amyloid nucleation score is -0.122 ± 0.43.

RCDVRFSWLIPSGLE gave an amyloid nucleation score of 1.56 ± 0.086.

As for RCFIDLCFLDIIISFRYY, the amyloid nucleation score result is “inactive”.

As for RCGILW, the amyloid nucleation score result is “inactive”.

Turning to RCGTLYRGG, the amyloid nucleation score entry was “inactive”.

RCGYHFHQVAFFTKDVKVVE: the amyloid nucleation score result was “inactive”.

In turn, RCLEEP yielded an amyloid nucleation score of 0.145 ± 0.34.

With RCLMDMFHILPKKSGVFSIT, the amyloid nucleation score result is “inactive”.

As for RCNKRTEGVSE, the amyloid nucleation score result is “inactive”.

With RCNLTCLGMIDVTIS, the amyloid nucleation score result is “inactive”.

In the case of RCSYLMRLYISSFMY, the amyloid nucleation score result was “inactive”.

Substance RCVGEACVNGGCLITITYVG displayed an amyloid nucleation score of 1.16 ± 0.11.

With RDCDDQ, the amyloid nucleation score entry was “inactive”.

RDDGEALVTSARRVQTSYPA had an amyloid nucleation score of -0.145 ± 0.93.

With RDDNAKNVGSPRAAHTRALR, the amyloid nucleation score entry was “inactive”.

RDEVLNSHFIVGSRMRSNVA gave an amyloid nucleation score of 1.31 ± 0.14.

As to RDFATTNGRDNIELHSQGNY, the amyloid nucleation score entry was “inactive”.

Substance RDGSQGEFWVLALARLGGTS displayed an amyloid nucleation score of 0.311 ± 0.48.

Turning to RDIMGLDLFQARNTTRSNYK, the amyloid nucleation score result was “inactive”.

As to RDIQYLCKYLRSMMHRGQAH, the amyloid nucleation score result was “inactive”.

On to RDNLLGLTGNTTGDFTPGTV, for which the amyloid nucleation score entry is “inactive”.

On to RDPFITFWYMRIYTTGRGCV, for which the amyloid nucleation score entry was “inactive”.

Regarding RDRWI, the amyloid nucleation score result was “inactive”.

Regarding RDVMWVNHVYCMLEFWTWVV, the amyloid nucleation score entry was “inactive”.

Turning to RDYILKT, the amyloid nucleation score result was “inactive”.

For the substance RDYKAHYLRCLYLWTMSLP, the amyloid nucleation score result was “inactive”.

For RECSNSVVLFLDVTHRVVRT, the amyloid nucleation score entry was “inactive”.

Take REGCHPFELSDPDGDHLVRF: the amyloid nucleation score entry is “inactive”.

REMKWRLELLVGGKYRYHQL: the amyloid nucleation score result is “inactive”.

REVELSNVYYNDVSACLHKK gave an amyloid nucleation score of -0.378 ± 1.4.

Regarding REVRTGLNLIPRRIVSNHTF, the amyloid nucleation score entry is “inactive”.

Turning to REVYLMRSEPWRLLFDGKYR, the amyloid nucleation score entry was “inactive”.

On to RFDDRG, for which the amyloid nucleation score entry was “inactive”.

With RFIDWQVCD, the amyloid nucleation score result was “inactive”.

As to RFIWIGIWKEGEGLADYSEK, the amyloid nucleation score entry was “inactive”.

RFKYPPTFKMNSSSFFQSLL: the amyloid nucleation score entry is “inactive”.

In the case of RFLLDRACLWLRGVI, the amyloid nucleation score entry is “inactive”.

Regarding RFLLYPAPWRVFAIPYSEHL, the amyloid nucleation score result is “inactive”.

Regarding RFLSMSTLKRDS, the amyloid nucleation score entry is “inactive”.

Turning to RFMWSLGSTLRWKAWADVTG, the amyloid nucleation score result is “inactive”.

Substance RFRNYGLSGR returned an amyloid nucleation score of -0.38 ± 0.89.

On to RFSMNASYFYYVIMFSDCYS, for which the amyloid nucleation score result was “inactive”.

Take RFSNAMLMCLVTNVSC: the amyloid nucleation score came out at 0.451 ± 0.61.

Take RFWKTTPNGQIRVSSVMRCM: the amyloid nucleation score entry is “inactive”.

As to RFYNDW, the amyloid nucleation score result is “inactive”.

Consider RFYSARGGKRARIHVRVKWD, for which the amyloid nucleation score was -0.446 ± 0.55.

Take RGATC: the amyloid nucleation score result is “inactive”.

Turning to RGCKKLYRIKANVMYVSTVN, the amyloid nucleation score entry is “inactive”.

Consider RGITMCMSVL, for which the amyloid nucleation score entry is “inactive”.

In turn, RGLWLEQRAVNNYVGR yielded an amyloid nucleation score of -0.291 ± 0.46.

For the substance RGMISVMPSVIGPAL, the amyloid nucleation score result was “inactive”.

As to RHDCIYRKV, the amyloid nucleation score result is “inactive”.

RHGFALRLVHSSL: the amyloid nucleation score entry was “inactive”.

As for RHGLAWTYVKKSKMRTAAGR, the amyloid nucleation score result was “inactive”.

As for RHLLLTGKSWCVQACPGRTV, the amyloid nucleation score was -0.965 ± 1.1.

Regarding RIIIVYR, the amyloid nucleation score result is “inactive”.

RILLFMHPMSICMSP: the amyloid nucleation score result is “inactive”.

With RILPYSGSALLISTGFYHR, the amyloid nucleation score result was “inactive”.

For RIMWSRRVENVL, the amyloid nucleation score result is “inactive”.

Turning to RIPLWCFS, the amyloid nucleation score entry is “inactive”.

With RIPSGFTL, the amyloid nucleation score entry is “inactive”.

As to RIVEGMYLYVLS, the amyloid nucleation score result was “inactive”.

In the case of RKARRGCYVFLPKFSNVEFH, the amyloid nucleation score was determined as 1.03 ± 0.12.

As for RKCRCYLTSFKDPALYLT, the amyloid nucleation score entry is “inactive”.

In the case of RKERGSVFGSIWQFSCIRR, the amyloid nucleation score amounted to 0.731 ± 0.25.

For RKFAGYQSSNASGSPVQGMS, the amyloid nucleation score entry is “inactive”.

With RKGHDVVAVYWADLHSSGIV, the amyloid nucleation score entry was “inactive”.

Take RKLNNTSTSHGICVGAWITN: the amyloid nucleation score entry is “inactive”.

Take RKMFWDGF: the amyloid nucleation score entry was “inactive”.

In the case of RKNAVCICSNL, the amyloid nucleation score result is “inactive”.

Take RKSIGSLG: the amyloid nucleation score entry was “inactive”.

Turning to RKSSSVRFFEHCVVSDVWLV, the amyloid nucleation score entry is “inactive”.

Consider RKYCYGMSLFTDMTMLVRRK, for which the amyloid nucleation score entry is “inactive”.

In the case of RLATREDHAHLLDHACLVG, the amyloid nucleation score entry was “inactive”.

On to RLATYALSFPSS, for which the amyloid nucleation score entry is “inactive”.

RLGEGKCTPYQWFVSNSTSN registered an amyloid nucleation score of -0.166 ± 0.66.

Regarding RLGFDITKITWCGIYFAGWV, the amyloid nucleation score entry was “inactive”.

Turning to RLGFF, the amyloid nucleation score entry is “inactive”.

RLGRLTPKMISYRKVWKYWG: the amyloid nucleation score result was “inactive”.

For RLGTMVVDLVERARIEGDVF, the amyloid nucleation score entry is “inactive”.

For RLHFCVGPMAPYSMEQSQ, the amyloid nucleation score result is “inactive”.

The substance RLINKYWSPNPMLRKFR showed an amyloid nucleation score of 1.09 ± 0.11.

In the case of RLINVMVCYLLEGCQGLLL, the amyloid nucleation score is 1.67 ± 0.1.

On to RLKNHSGCIILNRCVSRGRI, for which the amyloid nucleation score result is “inactive”.

Consider RLNAYMCLEMVTLSTRKHVG, for which the amyloid nucleation score is 1.79 ± 0.079.

For the substance RLNRVGNFIAGHLIGA, the amyloid nucleation score result is “inactive”.

Turning to RLPPDSQMPSFYCCVDL, the amyloid nucleation score was -0.144 ± 1.1.

With RLQPFVHFVYCWESIVVCMW, the amyloid nucleation score came out at 1.56 ± 0.068.

Take RLSLFRGKCRVYYYTGSIQV: the amyloid nucleation score result was “inactive”.

For the substance RLVCCKSHPFDVRYF, the amyloid nucleation score entry is “inactive”.

On to RLVYPSVSSLKPIRSCWLG, for which the amyloid nucleation score entry is “inactive”.

Consider RLYLESVYYFLSRAHRLSID, for which the amyloid nucleation score result is “inactive”.

For RLYNTIFPSKKIWYKKLEGC, the amyloid nucleation score entry was “inactive”.

Take RLYRRSCVSSR: the amyloid nucleation score entry was “inactive”.

Turning to RMCGSCYLCYCRERRGYTAF, the amyloid nucleation score result is “inactive”.

On to RMDLEIVLNILHSGMS, for which the amyloid nucleation score entry is “inactive”.

In turn, RMFNSYNQFLLVAMLPYPLR came in with an amyloid nucleation score of 2.62 ± 0.071.

RMRSMRSMF: the amyloid nucleation score result is “inactive”.

As for RMSRNMWFWLRLNSNYIVFS, the amyloid nucleation score result is “inactive”.

As for RMTMFRTEAAVVKRSVSTVV, the amyloid nucleation score result is “inactive”.

RMVHS returned an amyloid nucleation score of 1.62 ± 0.091.

On to RMVPKMSVCS, for which the amyloid nucleation score entry was “inactive”.

RNEDLSA had an amyloid nucleation score of -0.096 ± 0.66.

As to RNHIALSLGWIQEDVIGSWN, the amyloid nucleation score is 0.991 ± 0.13.

For the origin of these results see the supplement of paper PMC12042874.
